Data: article PMC11592734

Experiments:
[1] = target: whole-length cardiac myosin isolated from mice hearts (mouse) (UniProt Q91Z83); assay: co-sedimentation; whole-length cardiac myosin (10 µM) incubated with increasing concentration (0-10 µM) of hC0-C2; Michaelis-Menten binding fit
[2] = target: wild-type recombinant human cMyBP-C C0-C2 region (hC0-C2^WT) (human); assay: ITC; 20 µM hC0-C2 titrated against 350 µM hS2; n = 3
[3] = target: recombinant human cMyBP-C C0-C2 region with D389V (hC0-C2^D389V) (human); assay: solid-phase binding assay; 20 µM hC0-C2 incubated with increasing concentrations of hS2 (0-20 µM); binding of hS2 read by fluorescence intensity; Michaelis-Menten binding fit; n = 3
[4] = target: wild-type recombinant human cMyBP-C C0-C2 region (hC0-C2^WT) (human); assay: as above

Sequence of UniProt Q91Z83 (Q91Z83 whole entry, chain 1 of 3): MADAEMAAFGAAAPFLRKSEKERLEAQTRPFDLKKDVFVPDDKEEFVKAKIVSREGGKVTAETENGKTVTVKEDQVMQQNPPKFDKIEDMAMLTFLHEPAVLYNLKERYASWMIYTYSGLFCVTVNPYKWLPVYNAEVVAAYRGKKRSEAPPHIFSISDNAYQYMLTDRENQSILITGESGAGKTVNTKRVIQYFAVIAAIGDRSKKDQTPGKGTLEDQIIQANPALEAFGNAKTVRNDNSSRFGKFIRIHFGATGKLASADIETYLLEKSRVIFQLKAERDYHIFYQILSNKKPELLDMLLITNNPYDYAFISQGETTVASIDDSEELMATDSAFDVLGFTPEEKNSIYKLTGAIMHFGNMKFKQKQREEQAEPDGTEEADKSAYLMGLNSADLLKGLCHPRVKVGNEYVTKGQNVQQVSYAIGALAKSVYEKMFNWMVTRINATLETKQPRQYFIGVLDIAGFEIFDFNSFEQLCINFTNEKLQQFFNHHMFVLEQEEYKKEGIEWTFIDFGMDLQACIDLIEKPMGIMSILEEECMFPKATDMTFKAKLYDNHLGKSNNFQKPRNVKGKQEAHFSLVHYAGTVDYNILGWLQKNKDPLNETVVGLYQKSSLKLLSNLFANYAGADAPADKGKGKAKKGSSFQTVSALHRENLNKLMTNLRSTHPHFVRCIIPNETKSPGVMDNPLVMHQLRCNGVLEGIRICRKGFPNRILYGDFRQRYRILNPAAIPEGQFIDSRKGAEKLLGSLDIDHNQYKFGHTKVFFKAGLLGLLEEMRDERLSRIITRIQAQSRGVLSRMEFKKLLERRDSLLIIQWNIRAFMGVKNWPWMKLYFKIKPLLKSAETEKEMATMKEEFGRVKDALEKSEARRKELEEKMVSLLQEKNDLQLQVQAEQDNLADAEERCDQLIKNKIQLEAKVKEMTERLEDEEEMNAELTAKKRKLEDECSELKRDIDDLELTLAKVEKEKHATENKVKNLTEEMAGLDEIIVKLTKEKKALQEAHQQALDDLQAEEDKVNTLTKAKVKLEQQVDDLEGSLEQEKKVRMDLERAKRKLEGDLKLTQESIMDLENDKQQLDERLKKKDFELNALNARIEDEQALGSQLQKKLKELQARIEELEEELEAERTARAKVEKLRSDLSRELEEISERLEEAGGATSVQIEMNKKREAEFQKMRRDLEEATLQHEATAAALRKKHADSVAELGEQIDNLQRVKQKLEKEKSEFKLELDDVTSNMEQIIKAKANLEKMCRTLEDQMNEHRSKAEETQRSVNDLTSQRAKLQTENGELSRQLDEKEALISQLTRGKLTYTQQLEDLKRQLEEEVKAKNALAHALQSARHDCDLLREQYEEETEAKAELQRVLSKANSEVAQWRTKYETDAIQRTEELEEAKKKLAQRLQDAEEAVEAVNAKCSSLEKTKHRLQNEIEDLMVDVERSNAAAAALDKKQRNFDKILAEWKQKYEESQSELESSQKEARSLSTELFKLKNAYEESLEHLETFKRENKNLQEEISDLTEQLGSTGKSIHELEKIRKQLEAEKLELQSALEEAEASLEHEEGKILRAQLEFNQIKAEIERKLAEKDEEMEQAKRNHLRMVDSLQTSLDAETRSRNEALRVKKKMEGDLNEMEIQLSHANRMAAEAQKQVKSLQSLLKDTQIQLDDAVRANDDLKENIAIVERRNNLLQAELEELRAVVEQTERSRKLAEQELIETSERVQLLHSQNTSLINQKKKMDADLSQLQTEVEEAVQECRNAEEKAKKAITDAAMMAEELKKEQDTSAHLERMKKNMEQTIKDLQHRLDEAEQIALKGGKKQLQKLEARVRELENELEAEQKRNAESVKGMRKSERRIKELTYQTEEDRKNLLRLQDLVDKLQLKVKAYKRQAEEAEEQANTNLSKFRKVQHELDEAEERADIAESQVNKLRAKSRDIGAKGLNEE
Sequence of UniProt Q91Z83 (P09542 2-204, chain 2 of 3, further chain): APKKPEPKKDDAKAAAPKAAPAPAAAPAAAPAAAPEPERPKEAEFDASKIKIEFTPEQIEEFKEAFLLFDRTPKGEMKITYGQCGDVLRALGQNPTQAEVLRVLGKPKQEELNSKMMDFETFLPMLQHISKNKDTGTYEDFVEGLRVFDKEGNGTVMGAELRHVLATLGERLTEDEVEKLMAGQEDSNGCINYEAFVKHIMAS
Sequence of UniProt Q91Z83 (P51667 2-166, chain 3 of 3, further chain): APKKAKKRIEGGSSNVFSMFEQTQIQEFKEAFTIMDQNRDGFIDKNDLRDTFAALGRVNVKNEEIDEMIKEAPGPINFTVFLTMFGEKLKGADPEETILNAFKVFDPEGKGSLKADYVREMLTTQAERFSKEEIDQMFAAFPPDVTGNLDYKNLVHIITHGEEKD

Kd [1]	stoichiometry N [2]	Kd [3]	Kd [4]	Substance
900 nM				recombinant human cMyBP-C C0-C2 region with D389V (hC0-C2^D389V) (domain or fragment)
	0.96	4730 nM	4950 nM	recombinant proximal (126 residues) human myosin S2 (hS2) (domain or fragment)
840 nM				wild-type recombinant human cMyBP-C C0-C2 region (hC0-C2^WT) (domain or fragment)
